Measured values from article PMC3902904, “Intrinsically disordered regions of nucleophosmin/B23 regulate its RNA binding activity through their inter- and intra-molecular association” (Nucleic Acids Research, 2013).
Each block holds one molecule with its values, some of them ahead of it.

What was measured:
[1] = system: GST-B23.1-CRD (human); assay: GST pull-down; conditions: total RNA, 300 mM NaCl wash; Sucrose gradient 15-40%, 5 µg protein with 10 µg 293T total RNA (buffer not given in the material); GST pull-down 2 µg protein, 5 µg total RNA, wash 300 mM …
[2] = system: GST-B23.1-CR (human); assay: GST pull-down; conditions: total RNA, 300 mM NaCl wash; Sucrose gradient 15-40%, 5 µg protein with 10 µg 293T total RNA (buffer not given in the material); GST pull-down 2 µg protein, 5 µg total RNA, wash 300 mM …
[3] = biological target: His-B23.1-ΔN (human) (UniProt P06748); assay: cross-linking; 0.1% glutaraldehyde, 10 min, room temperature, 20 mM Hepes-NaOH pH 7.9, 50 mM NaCl; SDS-PAGE, CBB staining; increased protein concentration (3.0 and 4.5 µM; lanes 5 and 6 at 4.5 µM)
[4] = biological target: T1, GST-B23.1-CR1 (human, UniProt P06748 189-259); assay: native gel or EMSA; GST-B23.1-A (0.5 µg) mixed with increasing amounts (0.5, 1.0, 2.0, 4.0 µg) of the other GST-tagged fragment in 10 µl buffer H, 30 min, room temperature; 6% native PAGE in 0.5x TBE, CBB staining; conditions: both partners purified
T1 construct: nucleophosmin NPM1/B23, variant B23.1, human, amino acids 189-259 (basic IDR); limits are printed for B23.1-CR1 in the CD experiment; also called bIDR; basic IDR; source: E. coli BL21 (DE3), purified (Glutathione sepharose, MNase-treated)
T1 sequence (P06748 189-259): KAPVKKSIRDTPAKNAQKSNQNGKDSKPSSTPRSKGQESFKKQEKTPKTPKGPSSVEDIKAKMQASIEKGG

[5] = biological target: T2, GST-B23.1-CR (human, UniProt P06748 189-294); assay: as above; conditions: both partners purified
T2 construct: nucleophosmin NPM1/B23, variant B23.1, human, basic IDR and CTD; amplified with the same forward primer as CR1 (which begins at 189, KAPVKK) and the T7 terminator primer; also called unphosphorylated GST-B23.1-CR; source: E. coli BL21 (DE3), purified (Glutathione sepharose, MNase-treated)
T2 sequence (P06748 189-294): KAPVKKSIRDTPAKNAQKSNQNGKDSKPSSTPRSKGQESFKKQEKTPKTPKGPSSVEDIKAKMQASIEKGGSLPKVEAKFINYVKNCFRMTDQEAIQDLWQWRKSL

[6] = biological target: T3, GST-B23.1-CRA (human, UniProt P06748 189-294, threonine 199 replaced with alanine (A) | threonine 219 replaced with alanine …); assay: as above; conditions: both partners purified
T3 construct: nucleophosmin NPM1/B23, variant B23.1, human, B23.1-CR with threonines 199, 219, 234 and 237 replaced with alanine; source: E. coli BL21 (DE3), purified (Glutathione sepharose, MNase-treated)
T3 sequence (P06748 other isoform, or with tags, fused parts or gaps with the stated changes): as the sequence (P06748 189-294) above, with T11A, T31A, T46A, T49A counted along it

[7] = biological target: T4, GST-B23.1-CRD (human, UniProt P06748 189-294, threonine 199 replaced with aspartic acid (D) | threonine 219 replaced with …); assay: as above; conditions: both partners purified
T4 construct: nucleophosmin NPM1/B23, variant B23.1, human, B23.1-CR with threonines 199, 219, 234 and 237 replaced with aspartic acid; also called phosphomimetic mutant; source: E. coli BL21 (DE3), purified (Glutathione sepharose, MNase-treated)
T4 sequence (P06748 other isoform, or with tags, fused parts or gaps with the stated changes): as the sequence (P06748 189-294) above, with T11D, T31D, T46D, T49D counted along it

Molecule: 18S rRNA
- binding signal (% of GST-B23.1-CR) [1]: 25
- binding signal (% (reference)) [2]: 100

Molecule: 28S rRNA
- binding signal (% of GST-B23.1-CR) [1]: 35
- binding signal (% (reference)) [2]: 100

The remaining lines, values ahead:

- stoichiometry N [3]: 2
Molecule: His-B23.1-ΔN (from UniProt P06748 120-294) (domain or fragment)

- binding result [4]: binds
- binding result [5]: binds
- binding result [6]: binds
- binding result [7]: binds
B1: GST-B23.1-A (domain or fragment, human, UniProt P06748 120-188, looked up)
chain: EEDAESEDEEEEDVKLLSISGKRSAPGGGSKVPQKKVKLAADEDDDDDDEEDDDEDDDDDDFDDEEAEE
notes: nucleophosmin NPM1/B23, variant B23.1 (longest variant), human, amino acids 120-188 (acidic IDR); The construction of pGEX2T-B23.1-A is not described in the methods; also called GST-tagged B23-A; aIDR; source: E. coli BL21 (DE3), purified (Glutathione sepharose, MNase-treated)
